{"source": "paper PMC11409006", "about": "(Computational and Structural Biotechnology Journal, 2024)", "binders": {"B1": {"name": "camelid single domain antibody sdAbCSP1 (VHH)", "VHH": "QVQLQESGGGLVQAGGSLRLSCAASGRTFSSYSMGWFRLVPGKEREFVARISSSGGNTYYADSVRGRFTISRDNAKNTVYLQMNSLKPEDTAVYYCAADLLQFGRSSRAADYDYWGQGTQVTVSS", "notes": "full length is aa1-144; CDR1 aa25-33, CDR2 aa52-57, HV4 aa74-77, CDR3 aa100-118; aa1-125 is the form without non-structured extensions; source: recombinantly expressed"}, "B2": {"name": "sdAbCSP1 (VHH)", "VHH": "B1 VHH", "notes": "144 residues (aa1-144); CDR1 aa25-33, CDR2 aa52-57, HV4 aa74-77, CDR3 aa100-118; aa106-108 are SSR; aa1-125 are the folded domain; also called camelid single domain antibody sdAbCSP1; pQ-sdAbCSP1 (form with N-terminal pyro-glutamine); source: recombinantly expressed"}}, "conditions_in_all_cases": "both partners purified", "key": {"[1]": {"molecular_target": "T1, C-terminal domain of the Plasmodium falciparum circumsporozoite protein, PfCSP-Cext (Plasmodium falciparum; strain not …, UniProt Q7K740)", "T1 construct": "Plasmodium falciparum circumsporozoite protein, C-terminal domain (alpha-TSR) with unstructured N- and C-terminal extensions; the compactly folded PfCSP-C domain is aa39-100 of PfCSP-Cext; K42, K45, E46, L48, N49 of PfCSP-Cext equal K314, K317, E318, L320, N321 of PfCSP; numbers count on: the construct PfCSP-Cext; also called PfaCSP-Cext; PfCSP-C (as named in the ITC sections); source: …", "T1 sequence (Q7K740 310-374)": "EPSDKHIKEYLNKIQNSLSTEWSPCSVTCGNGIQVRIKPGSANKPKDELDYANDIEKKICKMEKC", "test": "native MS; ITEM-TWO: nanoESI of the mixture (sdAbCSP1 : PfCSP-Cext = 1 : 3.4) in 200 mM ammonium acetate, pH 6.7; complex ions isolated and dissociated in the gas phase by stepwise raised collision cell voltage (2-120 V); apparent gas-phase constants; triplicate"}, "[2]": {"molecular_target": "T1, C-terminal domain of the Plasmodium …", "test": "ITC; sdAbCSP1 (45 µM) titrated into the cell with PfCSP-C (4 µM); 20 mM Tris-HCl, 150 mM NaCl, pH 8.0; 25 °C; one set of sites model; triplicate"}, "PfCSP-Cext": {"molecular_target": "T2, PfCSP-Cext (Plasmodium falciparum, UniProt Q7K740)", "T2 construct": "circumsporozoite protein (PfCSP) of Plasmodium falciparum, C-terminal domain with non-structured N- and C-terminal extensions; the compactly folded PfCSP-C domain is aa39-100; aa114-127 contain the His-tag; numbers count on: the PfCSP-Cext construct; also called C-terminal domain of the Plasmodium falciparum circumsporozoite protein; PfCSP-C (so called in the ITC methods and results); source: E. …", "T2 sequence (Q7K740 310-374)": "as above", "test": "ITC; sdAbCSP1 (45 µM) titrated into the cell with PfCSP-C (4 µM); 25 °C; 20 mM Tris-HCl, 150 mM NaCl, pH 8.0; one set of sites model; triplicate"}}}
{"binder": "B1", "values": [{"measurement": "KD m0g# (apparent quasi equilibrium constant of gas-phase complex dissociation)", "setting": "[1]", "value": "3.7e-12", "unit": "s⁻¹"}, {"measurement": "dH m0g# (apparent enthalpy of gas-phase complex dissociation)", "setting": "[1]", "value": 12, "unit": "kcal/mol"}, {"measurement": "kD m0g# (apparent rate constant of gas-phase complex dissociation)", "setting": "[1]", "value": "1e+10 Ø (unitless number)"}, {"measurement": "Kd", "setting": "[2]", "value": 0.5, "unit": "nM"}, {"measurement": "dH", "setting": "[2]", "value": -8.34, "unit": "kcal/mol"}]}
{"binder": "B2", "values": [{"measurement": "stoichiometry N", "setting": "PfCSP-Cext", "value": "0.9 ± 0.12"}]}
